{"source": "patent US11202837B2", "about": "“Biological materials and uses thereof” (Antikor Biopharma Limited, priority 2014, dated 2021)", "key": {"HER2": {"target": "HER2 (Homo sapiens, UniProt P04626)", "assay": "Biacore SPR binding to immobilised HER2", "details": "immobilised HER2", "method_in_brief": "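HER2 amine-coupled on CM5 or CM3 chips, Biacore T200. Free antibody (typically 5-0.6 μg/ml) and conjugates (20-2.5 μg/ml) injected 160 s at 30 μl/min, 900 s dissociation (3600 s at highest concentration); regeneration with 8M MgCl2. Kinetics compared with unmodified scFv.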"}, "[1]": {"assay": "Blood clearance of 125-I radiolabelled scFv/conjugates in mice", "type": "in vivo, mouse", "details": "total protein level by 125-I labelling, 10 μg i.v., BALB/c mice", "protocol": "An scFv, optimised for lysine conjugation was prepared as described in Example 27 or 28 and conjugated (as described in Example 31) to an NHS-derived Cemadotin drug (compound 2). The average DAR was 5 for scFv-TCT-Cem-1 and 4 for scFv-TCT-Cem-2 as determined by SDS-PAGE and IEF gels. This was radiolabelled with Iodine-125 using sodium-125-Iodide (MP Biologicals) and Iodogen™ tubes (Thermo) according to the manufacturer's instructions.\nTen micrograms of radiolabelled scFv or conjugate were injected intravenously into the tail vein of a group of 4 BALB/c female mice (Harlan UK) per time point. At each time point, blood was collected by cardiac puncture under terminal anaesthesia from 4 mice and the spleens were removed by dissection. The radioactivity from the blood and spleen tissues was measured using a gamma counter and compared to the injected dose, correcting for tissue weight. The percentage-injected dose per gram of tissue was plotted over time and pharmacokinetic parameters determined by fitting to a bi-exponential clearance model. […] This is described by the exponential decay, double, four-parameter equation y=ae^−bx+ce^−dx, where the distribution phase clearance rate (t1/2 alpha) can be determined by In 2/b, and the elimination clearance rate (t1/2 beta) can be determined by In 2/d."}, "[2]": {"assay": "Blood clearance in mice by direct ADC/scFv detection ELISA", "type": "in vivo, mouse", "details": "BALB/c mice", "protocol": "An anti-Cemadotin MAb was raised (Example 33) and used to follow the ADC in mouse blood, to determine the pharmacokinetic properties. Normal BALB/c mice, 6-8 weeks old were maintained in filtered cages until used. A single batch of material (scFv-TCT, scFv (TCT)-Cemadotin, DAR=5 or 8) were prepared as above (Example 31) and 0.1 mg was injected into groups of 20 mice that were sacrificed at 4 time points (5 mice analysed per time point). Around 0.5 ml of whole blood was removed by cardiac puncture into EDTA-tubes and the serum collected by centrifugation. The serum was diluted appropriately into PBS and analysed by ELISA on HER2 coated micro-titre plates (Example 11D), detecting either by anti-T7 Tag (total antibody) or anti-cemadotin (total ADC). Non-injected reference samples were used to create a calibration curve for a direct read-out of ADC/ScFv blood concentration."}, "[3]": {"assay": "Plasma pharmacokinetics in BALB/c mice (ELISA, total antibody and total ADC)", "type": "in vivo, mouse", "details": "for Elimination half-life (hrs) Total Antibody: plasma ELISA", "protocol": "Mice. Female BALB/c mice (BALB/cAnNCrl, Charles River) were eight weeks old with body weights ranging from 15.9 to 21.9 grams at the beginning of the study. The animals were fed ad libitum water (reverse osmosis, 1 ppm Cl) and NIH 31 Modified and Irradiated Lab Diet® consisting of 18.0% crude protein, 5.0% crude fat, and 5.0% crude fiber. The mice were housed on irradiated Enrich-o'cobs™ Laboratory Animal Bedding in static microisolators on a 12-hour light cycle at 20-22° C. (68-72° F.) and at 40-60% humidity. Charles River Discovery Services North Carolina (CR Discovery Services, who carried out this contracted R&D) specifically complies with the recommendations of the Guide for Care and Use of Laboratory Animals with respect to restraint, husbandry, surgical procedures, feed and fluid regulation, and veterinary care. The Animal Care and Use program at CR Discovery Services is accredited by the Association for Assessment and Accreditation of Laboratory Animal Care International, which assures compliance with accepted standards for the care and use of laboratory animals.\nTherapeutic (test) Agents. All test agents were supplied as ready-to-dose dosing solutions. All dosing solutions were stored at 4° C. until dosed. All treatments were administered in a dosing volume scaled to the body weights of the individual animals to obtain the dosing concentration described in the treatment tables.\nTreatment (mice). On Day 1 of the study, mice were divided into groups each consisting of eighteen mice (per test agent being evaluated), and dosing was initiated according to the treatment plan summarized in the treatment tables. All doses were administered intravenously (i.v.) by tail vein injection as described in the tables below.\nEndpoint. The study endpoint occurred after the last sampling point, typically on Day 2 or 4, twenty-four or seventy-two hours post dose.\nSampling (mice). Blood (full blood volume) was collected from three animals per treatment group per timepoint. Samples were collected from all animals via terminal cardiac puncture under isoflurane anesthesia. Once collected, blood samples were collected into collection tubes containing lithium heparin or K2EDTA as anticoagulants and were processed for plasma at each timepoint. Each plasma sample was stored at −80° C. until used for analysis.\nQuantification of test agents in plasma. An ELISA was carried out as described in Example 31 The detecting antibodies were (a) Anti-T7 tag to detect the scFv (total antibody), (b) Anti-Human Fab-specific to detect trastuzumab (total antibody), (c) Anti-MMAF (Concortis), Anti-MMAE (Concortis), anti-DM1\n(Concortis) and anti-cemadotin (in-house mouse monoclonal antibody, Example 33 that also recognised P5C5 and AuristatinF), total ADC. The reference test agents were used to construct a calibration curve for which the plasma samples were compared to, in order to quantify the amount present. The concentration was plotted against time (average of three animals with standard error) and fitted to a 2-phase decay curve using GraphPad Prism to derive kinetic parameters."}, "[4]": {"assay": "Concentration reached and storage stability of purified conjugates in buffer", "type": "physicochemical", "details": "Storage buffer 20 mM Sodium Acetate pH5, 150 mM NaCl"}, "[5]": {"details": "0.1 mg injected, serum, anti-T7 tag detection"}}, "data": [{"molecule": "scFv (TCT): anti-HER2 scFv: Tev cleavage site, C6.5, T7 tag; SEQ ID NO: 2 (protein, Amino Acid sequence of cleaved TCT) scFv: SGSGGSGQVQLVQSGAEVKKPGESLKISCKGSGYSFTSYWIAWVRQMPGKGLEYMGLIYPGDSDTKYSPSFQGQVTISVDKSVSTAYLQWSSLKPSDSAVYFCARHDVGYCSSSNCAAWPEYFQHWGQGTLVTVSSGGGGSGGGGSGGGGSQSVLTQPPSVSAAPGQKVTISCSGSSSNIGNNYVSWYQQLPGTAPKLLIYGHTNRPAGVPDRFSGSKSGTSASLAISGFRSEDEADYYCAAWDDSLSGWVFGGGTKLTVLMASMTGGQQMG", "values": [{"measurement": "association rate", "setting": "HER2", "result": "2.8e+06", "unit": "M⁻¹ s⁻¹"}, {"measurement": "dissociation rate", "setting": "HER2", "result": 0.00417, "unit": "s⁻¹"}, {"measurement": "t1/2 (alpha)", "setting": "[1]", "result": 0.4, "unit": "h"}, {"measurement": "t1/2 (beta)", "setting": "[1]", "result": 4.3, "unit": "h"}, {"measurement": "t1/2 (alpha), total antibody measured by anti-HER2 binding", "setting": "[2]; [5]", "result": 0.4, "unit": "h"}, {"measurement": "t1/2 (beta), total antibody measured by anti-HER2 binding", "setting": "[2]; [5]", "result": 5.25, "unit": "h"}, {"measurement": "blood clearance (in words)", "setting": "[2]; measured directly", "result": "rapid blood clearance"}, {"measurement": "Bioavailability (blood exposure, AUC, 24 hrs)", "setting": "[3]; mice, 1 × 5 mg/kg, mean AUC in anti-payload and anti-protein detection, Table 59", "result": 2.91, "unit": "μghr/ml"}, {"measurement": "Elimination half-life (hrs) Total Antibody", "setting": "[3]; mice, 1 × 5 mg/kg, Table 55", "result": 2.78, "unit": "h"}, {"measurement": "Elimination half-life (hrs) Total Antibody", "setting": "[3]; mice, 1 × 5 mg/kg, Table 59", "result": 2.78, "unit": "h"}, {"measurement": "plasma clearance (in words)", "setting": "[3]; single i.v. dose, female BALB/c mice (5 mg/kg MMAF-C5, P5C5; 2 mg/kg AF-C5, DM1)", "result": "clears rapidly"}, {"measurement": "stability after multiple freeze-thaw cycles", "setting": "[4]", "result": "stable"}]}]}
